Publication PMC5727412

Molecular target: AcrE1 with a C-terminal 6×His tag (Pseudomonas phage JBD5)
Assay: SEC; purified AcrE1 CHis; single peak; elution volume compared with a standard curve to estimate the native molecular mass

stoichiometry N: 2
Substance: AcrE1 with a C-terminal 6×His tag (natural protein)
